Earlier results in PMC4339652.
“And” between values parts separate entries of the source, which are not always exact repeats. Equal entries are not always repeated. Where two headings read alike, the source gives them in different places.

What was measured:
[1] = biological target: TolA TolAII-III (Escherichia coli) (UniProt P19934); assay: SPR
[2] = biological target: TolA TolAIII (Escherichia coli) (UniProt P19934); assay: SPR
[3] = biological target: TolA TolAIII (Escherichia coli) (UniProt P19934); assay: stopped flow fluorescence
[4] = biological target: TolA TolAIII (Escherichia coli) (UniProt P19934); assay: ITC
TolB (Escherichia coli) [5] = biological target: TolB (Escherichia coli) (UniProt P0A855); assay: ITC
[6] = biological target: Colicin N 40-90 (Escherichia coli) (UniProt P08083); assay: SPR
TolB (Escherichia coli) [7] = biological target: TolB (Escherichia coli) (UniProt P0A855); assay: ITC; remark: listed apart in the source
[8] = biological target: Colicin N T domain (Escherichia coli) (UniProt P08083)
[9] = biological target: G3p N1 (Filamentous phage) (UniProt O80297)
G3p N1 (Filamentous phage), sequence (O80297 18-79): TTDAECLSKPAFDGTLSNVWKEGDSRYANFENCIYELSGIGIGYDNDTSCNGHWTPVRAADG

Colicin N T domain (1-90), sequence (P08083 1-90): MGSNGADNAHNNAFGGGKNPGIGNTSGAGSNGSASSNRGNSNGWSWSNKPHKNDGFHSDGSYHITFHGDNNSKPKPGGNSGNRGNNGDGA
TolA TolAII-III, sequence (P19934 48-421): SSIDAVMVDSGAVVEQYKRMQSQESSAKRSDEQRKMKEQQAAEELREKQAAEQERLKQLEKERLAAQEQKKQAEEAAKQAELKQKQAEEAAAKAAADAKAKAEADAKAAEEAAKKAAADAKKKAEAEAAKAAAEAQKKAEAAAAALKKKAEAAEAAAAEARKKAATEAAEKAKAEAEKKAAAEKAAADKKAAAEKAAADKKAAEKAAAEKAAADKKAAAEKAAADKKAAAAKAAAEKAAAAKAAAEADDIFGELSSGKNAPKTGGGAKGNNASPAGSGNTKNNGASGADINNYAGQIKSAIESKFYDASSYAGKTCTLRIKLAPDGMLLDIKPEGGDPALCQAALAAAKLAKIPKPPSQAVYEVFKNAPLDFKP
TolA TolAIII, sequence (P19934 311-421): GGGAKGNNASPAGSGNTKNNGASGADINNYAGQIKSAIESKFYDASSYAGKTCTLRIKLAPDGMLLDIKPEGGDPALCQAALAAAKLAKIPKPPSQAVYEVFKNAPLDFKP
TolA TolAIII (Escherichia coli), sequence (P19934 311-421): as above
Colicin N 40-90, sequence (P08083 40-90): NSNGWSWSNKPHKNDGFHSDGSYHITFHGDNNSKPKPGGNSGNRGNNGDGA
Colicin N 40-90 (Escherichia coli), sequence (P08083 40-90): as above
TolB (Escherichia coli), sequence (P0A855 22-430): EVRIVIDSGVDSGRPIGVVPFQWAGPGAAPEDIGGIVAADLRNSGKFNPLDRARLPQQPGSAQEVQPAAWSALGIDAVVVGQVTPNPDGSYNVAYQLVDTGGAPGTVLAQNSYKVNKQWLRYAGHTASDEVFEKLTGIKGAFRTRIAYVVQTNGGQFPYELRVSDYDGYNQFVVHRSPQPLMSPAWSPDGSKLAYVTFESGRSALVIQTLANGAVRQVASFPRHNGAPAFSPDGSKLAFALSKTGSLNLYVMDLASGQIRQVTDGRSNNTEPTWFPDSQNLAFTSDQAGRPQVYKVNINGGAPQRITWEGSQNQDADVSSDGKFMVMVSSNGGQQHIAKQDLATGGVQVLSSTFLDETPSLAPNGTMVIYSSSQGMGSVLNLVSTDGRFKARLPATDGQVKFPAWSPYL
Colicin N T domain (Escherichia coli), sequence (P08083 1-90): as the sequence (P08083 1-90) above
TolA TolAII-III (Escherichia coli), sequence (P19934 48-421): as the sequence (P19934 48-421) above
G3p N1 domain, sequence (P69168 16-88): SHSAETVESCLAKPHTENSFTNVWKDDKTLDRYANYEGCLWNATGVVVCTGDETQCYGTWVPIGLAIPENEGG
TolA TolA, sequence (P19934 whole entry): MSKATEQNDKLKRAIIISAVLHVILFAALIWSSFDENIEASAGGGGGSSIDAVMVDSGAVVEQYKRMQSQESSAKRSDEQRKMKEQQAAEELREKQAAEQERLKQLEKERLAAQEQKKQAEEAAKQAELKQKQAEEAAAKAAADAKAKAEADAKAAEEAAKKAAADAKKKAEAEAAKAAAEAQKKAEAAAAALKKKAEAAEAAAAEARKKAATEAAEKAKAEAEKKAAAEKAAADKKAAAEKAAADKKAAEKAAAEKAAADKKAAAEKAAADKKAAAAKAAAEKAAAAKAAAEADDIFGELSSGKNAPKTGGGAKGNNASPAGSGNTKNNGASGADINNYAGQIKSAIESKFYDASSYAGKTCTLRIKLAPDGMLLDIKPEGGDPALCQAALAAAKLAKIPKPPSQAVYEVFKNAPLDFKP

For Colicin N 40-90 (from UniProt P08083), the Kd [1] is given as 0.94 µM and the Kd [2] is given as 0.85 µM and 0.19 µM.
In the case of “Colicin N T domain (1-90) (from UniProt P08083)”, the Kd [3] is given as 2.3 µM, the Kd [4] is given as 1 µM and the Kd [2] is given as 1.25 µM.
In the case of G3p N1 domain (from UniProt P69168), the Kd [2] is given as 1 µM.
For TolA TolA (from UniProt P19934), the Kd (TolB (Escherichia coli) [5]) is given as 40 µM.
In the case of TolA TolAII-III (from UniProt P19934), the Kd [6] is listed as 0.19 µM and 0.94 µM and 0.85 µM.
In the case of TolA TolAIII (from UniProt P19934), the Kd (TolB (Escherichia coli) [5]) is listed as 13 µM, the Kd (TolB (Escherichia coli) [7]) is listed as 40 µM and the Kd [8] is listed as 1 µM. For the same substance, the Kd [9] was 1 µM.
